Measured values from patent US20220372155A1 (LYVGEN BIOPHARMA, published 2022).

What follows are binders tested against T1, human CD40 expressed on CHO cells (human, UniProt P25942 21-277) (assay: FACS, CHO cells).
T1 construct: whole, on cells; also used for the reporter cells over-expressing human CD40; also called cellular CD40; CHO-CD40 cells
T1 sequence (P25942 21-277): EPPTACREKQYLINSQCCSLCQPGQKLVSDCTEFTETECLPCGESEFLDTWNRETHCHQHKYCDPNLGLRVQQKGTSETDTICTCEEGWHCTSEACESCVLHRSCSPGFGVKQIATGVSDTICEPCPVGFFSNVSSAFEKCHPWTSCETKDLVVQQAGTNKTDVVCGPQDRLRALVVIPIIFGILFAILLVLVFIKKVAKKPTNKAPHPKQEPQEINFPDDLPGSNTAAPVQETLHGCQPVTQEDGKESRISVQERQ

Row | Binder | binding result
1 | Ly809 (bispecific antibody, human IgG1, kappa, Ly383 HC (IgG1 mutated Fc)-Ly253 scFv VL-VH + Ly383 LC) heavy: not shown light: QIVLSQSPAILSTSPGEKVTMTCRASSSVSYMHWYQQKPGSSPKPWIYATSNLASGVPARFSGSRSGTSYSLTISRVEAEDAATYYCQQWSSNTLTFGGGTKLELKRTVAAPSVFIFPPSDEQLKSGTASVVCLLNNFYPREAKVQWKVDNALQSGNSQESVTEQDSKDSTYSLSSTLTLSKADYEKHKVYACEVTHQGLSSPVTKSFNRGEC | binds
2 | Ly816 (bispecific antibody, human IgG1, kappa, Ly387 HC (IgG1 mutated Fc) + Ly387 LC-Ly253 scFv VH-VL) heavy: QVQLQQPGAELVKPGASVKLSCKASGYTFTSYWMHWVKQRPGQGLEWIGMIHPNSGGTNYNEKFKGKGTLTVDKSSSTAYMQLSSLTSDDSAVYYCVTSQATWFAYWGQGTLVTVSAASTKGPSVFPLAPSSKSTSGGTAALGCLVKDYFPEPVTVSWNSGALTSGVHTFPAVLQSSGLYSLSSVVTVPSSSLGTQTYICNVNHKPSNTKVDKKVEPKSCDKTHTCPPCPAPELLGPSVFLFPPKPKDTLMISRTPEVTCVVVDVSHEDPEVKFNWYVDGVEVHNAKTKPREEQYNSTYRVVSVLTVLHQDWLNGKEYKCKVSNKALPAPIEKTISKAKGQPREPQVYTLPPSREEMTKNQVSLTCLVKGFYPSDIAVEWESNGQPENNYKTTPPVLDSDGSFFLYSKLTVDKSRWQQGNVFSCSVMHEALHNHYTQKSLSLSPG light: not shown | binds
3 | Ly622 (bispecific antibody, human IgG1, kappa, Ly591 HC (IgG1 mutated Fc)-TM740 scFv VL-VH + Ly591 LC) heavy: EVQLVESGGGLVQPGGSLRLSCAASGFTFTDYTMDWVRQAPGKGLEWVADVNPNSGGSIYNQRFKGRFTLSVDRSKNTLYLQMNSLRAEDTAVYYCARNLGPSFYFDYWGQGTLVTVSSASTKGPSVFPLAPSSKSTSGGTAALGCLVKDYFPEPVTVSWNSGALTSGVHTFPAVLQSSGLYSLSSVVTVPSSSLGTQTYICNVNHKPSNTKVDKKVEPKSCDKTHTCPPCPAPELLGPSVFLFPPKPKDTLMISRTPEVTCVVVDVSHEDPEVKFNWYVDGVEVHNAKTKPREEQYNSTYRVVSVLTVLHQDWLNGKEYKCKVSNKALPAPIEKTISKAKGQPREPQVYTLPPSREEMTKNQVSLTCLVKGFYPSDIAVEWESNGQPENNYKTTPPVLDSDGSFFLYSKLTVDKSRWQQGNVFSCSVMHEALHNHYTQKSLSLSPGGGGGSGGGGSGGGGSGGGGSDIQMTQSPSSLSASVGDRVTITCKASQNIYIYLNWYQQKPGKAPKLLIYNTNNLQTGVPSRFSGSGSGTDFTLTISSLQPEDFATYYCLQHSSRRTFGGGTKVEIKGGGGSGGGGSGGGGSGGGGSQVQLVESGGGLVQPGGSLKLSCATSGFNFNDYFMNWVRQASGKGLEWVGQIRNKNYNYATYYTESLEGRVTISRDDSKNTAYLQMNSLKTEDTAVYYCTSYYYDGFADYFDYWGQGTTVTVSS light: not shown | binds
4 | Ly813 (bispecific antibody, human IgG1, kappa, Ly387 HC (IgG1 mutated Fc)-Ly253 scFv VL-VH + Ly387 LC) heavy: not shown light: ENVLTQSPAIMSVSPGEKVTMTCRASSSVSSSYLHWYQQKSGASPKFWIYSTSNLASGVPARFSGSGSGTSYSLTISSVEAEDAATYYCQHYSGYPLTFGAGTKLELRRTVAAPSVFIFPPSDEQLKSGTASVVCLLNNFYPREAKVQWKVDNALQSGNSQESVTEQDSKDSTYSLSSTLTLSKADYEKHKVYACEVTHQGLSSPVTKSFNRGEC | binds
5 | Ly624 (bispecific antibody, human IgG1, kappa, Ly591 HC (IgG1 mutated Fc)-TM559 (printed TM599) scFv VL-VH + Ly591 LC) heavy: EVQLVESGGGLVQPGGSLRLSCAASGFTFTDYTMDWVRQAPGKGLEWVADVNPNSGGSIYNQRFKGRFTLSVDRSKNTLYLQMNSLRAEDTAVYYCARNLGPSFYFDYWGQGTLVTVSSASTKGPSVFPLAPSSKSTSGGTAALGCLVKDYFPEPVTVSWNSGALTSGVHTFPAVLQSSGLYSLSSVVTVPSSSLGTQTYICNVNHKPSNTKVDKKVEPKSCDKTHTCPPCPAPELLGPSVFLFPPKPKDTLMISRTPEVTCVVVDVSHEDPEVKFNWYVDGVEVHNAKTKPREEQYNSTYRVVSVLTVLHQDWLNGKEYKCKVSNKALPAPIEKTISKAKGQPREPQVYTLPPSREEMTKNQVSLTCLVKGFYPSDIAVEWESNGQPENNYKTTPPVLDSDGSFFLYSKLTVDKSRWQQGNVFSCSVMHEALHNHYTQKSLSLSPGGGGGSGGGGSGGGGSGGGGSDIQMTQSPSSLSASVGDRVTITCLASEDISNDLAWYQQKPGKAPKLLIYFVDRLLDGVPSRFSGSGSGTDFTLTISSLQPEDFATYYCQQSYKYPPTFGQGTKLEIKGGGGSGGGGSGGGGSGGGGSEVQLVESGGGLVQPGGSLRLSCAASGFTFTNYGLHWVRQAPGKGLEWVSSISPSGGVTYYRDSVKGRFTISRDNSKNTLYLQMNSLRAEDTAVYYCAKPFLGWGGANWIAHWGQGTLVTVSS light: not shown | binds
6 | Ly625 (bispecific antibody, human IgG1, kappa, Ly591 HC (IgG1 mutated Fc)-TM559 (printed TM599) scFv VH-VL + Ly591 LC) heavy: EVQLVESGGGLVQPGGSLRLSCAASGFTFTDYTMDWVRQAPGKGLEWVADVNPNSGGSIYNQRFKGRFTLSVDRSKNTLYLQMNSLRAEDTAVYYCARNLGPSFYFDYWGQGTLVTVSSASTKGPSVFPLAPSSKSTSGGTAALGCLVKDYFPEPVTVSWNSGALTSGVHTFPAVLQSSGLYSLSSVVTVPSSSLGTQTYICNVNHKPSNTKVDKKVEPKSCDKTHTCPPCPAPELLGPSVFLFPPKPKDTLMISRTPEVTCVVVDVSHEDPEVKFNWYVDGVEVHNAKTKPREEQYNSTYRVVSVLTVLHQDWLNGKEYKCKVSNKALPAPIEKTISKAKGQPREPQVYTLPPSREEMTKNQVSLTCLVKGFYPSDIAVEWESNGQPENNYKTTPPVLDSDGSFFLYSKLTVDKSRWQQGNVFSCSVMHEALHNHYTQKSLSLSPGGGGGSGGGGSGGGGSGGGGSEVQLVESGGGLVQPGGSLRLSCAASGFTFTNYGLHWVRQAPGKGLEWVSSISPSGGVTYYRDSVKGRFTISRDNSKNTLYLQMNSLRAEDTAVYYCAKPFLGWGGANWIAHWGQGTLVTVSSGGGGSGGGGSGGGGSGGGGSDIQMTQSPSSLSASVGDRVTITCLASEDISNDLAWYQQKPGKAPKLLIYFVDRLLDGVPSRFSGSGSGTDFTLTISSLQPEDFATYYCQQSYKYPPTFGQGTKLEIK light: not shown | binds

More lines, now with the values ahead:

Row | binding result | Binder
7 | binds | Ly810 (bispecific antibody, human IgG1, kappa, Ly383 HC (IgG1 mutated Fc)-Ly253 scFv VH-VL + Ly383 LC) heavy: not shown light: QIVLSQSPAILSTSPGEKVTMTCRASSSVSYMHWYQQKPGSSPKPWIYATSNLASGVPARFSGSRSGTSYSLTISRVEAEDAATYYCQQWSSNTLTFGGGTKLELKRTVAAPSVFIFPPSDEQLKSGTASVVCLLNNFYPREAKVQWKVDNALQSGNSQESVTEQDSKDSTYSLSSTLTLSKADYEKHKVYACEVTHQGLSSPVTKSFNRGEC
8 | binds | Ly808 (bispecific antibody, human IgG1, kappa, Ly387 HC (IgG1 mutated Fc) + Ly387 LC-TM559 scFv VH-VL) heavy: QVQLQQPGAELVKPGASVKLSCKASGYTFTSYWMHWVKQRPGQGLEWIGMIHPNSGGTNYNEKFKGKGTLTVDKSSSTAYMQLSSLTSDDSAVYYCVTSQATWFAYWGQGTLVTVSAASTKGPSVFPLAPSSKSTSGGTAALGCLVKDYFPEPVTVSWNSGALTSGVHTFPAVLQSSGLYSLSSVVTVPSSSLGTQTYICNVNHKPSNTKVDKKVEPKSCDKTHTCPPCPAPELLGPSVFLFPPKPKDTLMISRTPEVTCVVVDVSHEDPEVKFNWYVDGVEVHNAKTKPREEQYNSTYRVVSVLTVLHQDWLNGKEYKCKVSNKALPAPIEKTISKAKGQPREPQVYTLPPSREEMTKNQVSLTCLVKGFYPSDIAVEWESNGQPENNYKTTPPVLDSDGSFFLYSKLTVDKSRWQQGNVFSCSVMHEALHNHYTQKSLSLSPG light: ENVLTQSPAIMSVSPGEKVTMTCRASSSVSSSYLHWYQQKSGASPKFWIYSTSNLASGVPARFSGSGSGTSYSLTISSVEAEDAATYYCQHYSGYPLTFGAGTKLELRRTVAAPSVFIFPPSDEQLKSGTASVVCLLNNFYPREAKVQWKVDNALQSGNSQESVTEQDSKDSTYSLSSTLTLSKADYEKHKVYACEVTHQGLSSPVTKSFNRGECGGGGSGGGGSGGGGSGGGGSEVQLVESGGGLVQPGGSLRLSCAASGFTFTNYGLHWVRQAPGKGLEWVSSISPSGGVTYYRDSVKGRFTISRDNSKNTLYLQMNSLRAEDTAVYYCAKPFLGWGGANWIAHWGQGTLVTVSSGGGGSGGGGSGGGGSGGGGSDIQMTQSPSSLSASVGDRVTITCLASEDISNDLAWYQQKPGKAPKLLIYFVDRLLDGVPSRFSGSGSGTDFTLTISSLQPEDFATYYCQQSYKYPPTFGQGTKLEIK
9 | binds | Ly815 (bispecific antibody, human IgG1, kappa, Ly387 HC (IgG1 mutated Fc) + Ly387 LC-Ly253 scFv VL-VH) heavy: QVQLQQPGAELVKPGASVKLSCKASGYTFTSYWMHWVKQRPGQGLEWIGMIHPNSGGTNYNEKFKGKGTLTVDKSSSTAYMQLSSLTSDDSAVYYCVTSQATWFAYWGQGTLVTVSAASTKGPSVFPLAPSSKSTSGGTAALGCLVKDYFPEPVTVSWNSGALTSGVHTFPAVLQSSGLYSLSSVVTVPSSSLGTQTYICNVNHKPSNTKVDKKVEPKSCDKTHTCPPCPAPELLGPSVFLFPPKPKDTLMISRTPEVTCVVVDVSHEDPEVKFNWYVDGVEVHNAKTKPREEQYNSTYRVVSVLTVLHQDWLNGKEYKCKVSNKALPAPIEKTISKAKGQPREPQVYTLPPSREEMTKNQVSLTCLVKGFYPSDIAVEWESNGQPENNYKTTPPVLDSDGSFFLYSKLTVDKSRWQQGNVFSCSVMHEALHNHYTQKSLSLSPG light: not shown
10 | binds | Ly814 (bispecific antibody, human IgG1, kappa, Ly387 HC-Ly253 scFv VH-VL + Ly387 LC) heavy: not shown light: ENVLTQSPAIMSVSPGEKVTMTCRASSSVSSSYLHWYQQKSGASPKFWIYSTSNLASGVPARFSGSGSGTSYSLTISSVEAEDAATYYCQHYSGYPLTFGAGTKLELRRTVAAPSVFIFPPSDEQLKSGTASVVCLLNNFYPREAKVQWKVDNALQSGNSQESVTEQDSKDSTYSLSSTLTLSKADYEKHKVYACEVTHQGLSSPVTKSFNRGEC
11 | binds | Ly623 (bispecific antibody, human IgG1, kappa, Ly591 HC (IgG1 mutated Fc)-TM740 scFv VH-VL + Ly591 LC) heavy: EVQLVESGGGLVQPGGSLRLSCAASGFTFTDYTMDWVRQAPGKGLEWVADVNPNSGGSIYNQRFKGRFTLSVDRSKNTLYLQMNSLRAEDTAVYYCARNLGPSFYFDYWGQGTLVTVSSASTKGPSVFPLAPSSKSTSGGTAALGCLVKDYFPEPVTVSWNSGALTSGVHTFPAVLQSSGLYSLSSVVTVPSSSLGTQTYICNVNHKPSNTKVDKKVEPKSCDKTHTCPPCPAPELLGPSVFLFPPKPKDTLMISRTPEVTCVVVDVSHEDPEVKFNWYVDGVEVHNAKTKPREEQYNSTYRVVSVLTVLHQDWLNGKEYKCKVSNKALPAPIEKTISKAKGQPREPQVYTLPPSREEMTKNQVSLTCLVKGFYPSDIAVEWESNGQPENNYKTTPPVLDSDGSFFLYSKLTVDKSRWQQGNVFSCSVMHEALHNHYTQKSLSLSPGGGGGSGGGGSGGGGSGGGGSQVQLVESGGGLVQPGGSLKLSCATSGFNFNDYFMNWVRQASGKGLEWVGQIRNKNYNYATYYTESLEGRVTISRDDSKNTAYLQMNSLKTEDTAVYYCTSYYYDGFADYFDYWGQGTTVTVSSGGGGSGGGGSGGGGSGGGGSDIQMTQSPSSLSASVGDRVTITCKASQNIYIYLNWYQQKPGKAPKLLIYNTNNLQTGVPSRFSGSGSGTDFTLTISSLQPEDFATYYCLQHSSRRTFGGGTKVEIK light: not shown
